Biological target: T1, IL-2Rα/β/γc complex (high affinity receptor) on human activated CD8+ T cells (human, UniProt P01589 22-272; P14784 27-551; P31785 23-369)
T1 sequence (looked up) 1: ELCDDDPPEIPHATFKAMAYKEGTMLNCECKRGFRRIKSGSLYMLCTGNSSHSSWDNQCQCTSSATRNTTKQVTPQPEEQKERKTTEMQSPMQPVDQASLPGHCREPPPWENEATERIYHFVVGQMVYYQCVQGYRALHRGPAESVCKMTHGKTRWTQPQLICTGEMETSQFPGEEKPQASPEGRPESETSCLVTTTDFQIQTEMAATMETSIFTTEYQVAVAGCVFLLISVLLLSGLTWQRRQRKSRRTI
T1 sequence (looked up) 2: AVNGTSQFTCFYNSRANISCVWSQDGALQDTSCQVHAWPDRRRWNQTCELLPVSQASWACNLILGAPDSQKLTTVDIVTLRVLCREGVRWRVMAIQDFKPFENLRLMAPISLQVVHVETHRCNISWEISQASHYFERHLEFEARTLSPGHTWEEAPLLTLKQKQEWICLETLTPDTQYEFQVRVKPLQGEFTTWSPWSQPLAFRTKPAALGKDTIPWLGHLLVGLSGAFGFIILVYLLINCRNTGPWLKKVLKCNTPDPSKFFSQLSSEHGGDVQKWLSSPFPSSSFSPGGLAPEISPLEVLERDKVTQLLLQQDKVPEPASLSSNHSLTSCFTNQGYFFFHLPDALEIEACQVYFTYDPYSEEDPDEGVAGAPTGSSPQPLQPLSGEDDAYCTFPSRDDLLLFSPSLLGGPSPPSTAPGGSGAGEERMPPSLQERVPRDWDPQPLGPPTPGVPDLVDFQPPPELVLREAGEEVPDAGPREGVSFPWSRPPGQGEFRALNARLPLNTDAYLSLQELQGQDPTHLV
T1 sequence (looked up) 3: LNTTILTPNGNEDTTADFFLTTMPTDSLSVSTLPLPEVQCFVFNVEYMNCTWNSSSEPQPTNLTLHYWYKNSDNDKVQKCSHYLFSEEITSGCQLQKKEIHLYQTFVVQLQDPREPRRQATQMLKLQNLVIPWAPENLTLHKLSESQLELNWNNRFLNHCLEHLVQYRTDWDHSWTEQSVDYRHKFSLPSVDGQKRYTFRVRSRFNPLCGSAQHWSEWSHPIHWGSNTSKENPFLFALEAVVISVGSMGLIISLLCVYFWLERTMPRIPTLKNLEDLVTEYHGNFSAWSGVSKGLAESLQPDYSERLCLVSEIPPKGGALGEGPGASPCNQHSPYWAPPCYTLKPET
Assay: cell-based or functional assay

B1: W3XX115-T3U0.E44-1.uIgG4V322 (Fc fusion)
chain: APTSSSTKKTQLQLEHLLLDLQMILNGINNYKNPKLTRMLTVKFAMPKKATELKHLQCLEEELKPLEEVLNGAQSKNFHLRPRDLISNINVIVLELKGSETTFMCEYADETATIVEFLNRWITFCQSIISTLTESKYGPPCPPCPAPEAAGGPSVFLFPPKPKDTLMISRTPEVTCVVVDVSQEDPEVQFNWYVDGVEVHNAKTKPREEQFNSTYRVVSVLTVLHQDWLNGKEYKCKVSNKGLPSSIEKTISKAKGQPREPQVYTLPPCQEEMTKNQVSLWCLVKGFYPSDIAVEWESNGQPENNYKTTPPVLDSDGSFFLYSRLTVDKSRWQEGNVFSCSVMHEALHNHYTQKSLSLSLG
heavy: EIQLQQSGPELVKPGASVKVSCKASGYSFTDYNMYWVKQSHGESLEWIGYIDPYNGGTRYNQKFKGKATLTVDKSSSTAFMHLNSLTSEDSAVYYCARNGHWDGAWFAYWGQGTLVTVSAASTKGPSVFPLAPCSRSTSESTAALGCLVKDYFPEPVTVSWNSGALTSGVHTFPAVLQSSGLYSLSSVVTVPSSSLGTKTYTCNVDHKPSNTKVDKRVESKYGPPCPPCPAPEAAGGPSVFLFPPKPKDTLMISRTPEVTCVVVDVSQEDPEVQFNWYVDGVEVHNAKTKPREEQFNSTYRVVSVLTVLHQDWLNGKEYKCKVSNKGLPSSIEKTISKAKGQPREPQVCTLPPSQEEMTKNQVSLSCAVKGFYPSDIAVEWESNGQPENNYKTTPPVLDSDGSFFLVSRLTVDKSRWQEGNVFSCSVMHEALHNHYTQKSLSLSLG
light: DIQMNQSPSSLSASLGDTITITCHASQNINVWLSWYQQKPGNIPKLLIYKASNLHTGVPSRFSGSRSGTGFTLTISSLQPEDIATYYCHQGQSYPFTFGSGTKLEIKRTVAAPSVFIFPPSDEQLKSGTASVVCLLNNFYPREAKVQWKVDNALQSGNSQESVTEQDSKDSTYSLSSTLTLSKADYEKHKVYACEVTHQGLSSPVTKSFNRGEC
Potency reduction, pSTAT5, human activated CD8+ T: 12.4 fold
